Data published in the Human Domainome abundance scans (Beltran et al. 2025).
± gives the uncertainty stated by the source.

B1: Intersectin-1, residues 909 to 971; numbered along this chain, Q15811 (parent)
chain: QGEKVEGLQAQALYPWRAKKDNHLNFNKNDVITVLEQQDMWWFGEVQGQKGWFPKSYVKLISG

Variants of: B1
Assay: abundance fitness (aPCA) (normalised: wild type 0, dead -1); higher = more abundant; growth selection in yeast, the domain comes from the species named
Conditions: Homo sapiens

Row | Variant | abundance fitness
1 | QGEKVEGLQAQALYPWRAKKNNHLNFNKNDVITVLEQQDMWWFGEVQGQKGWFPKSYVKLISG [D21N] | -0.265 ± 0.15
2 | QGEKVEGLQAQALYPWRAKKSNHLNFNKNDVITVLEQQDMWWFGEVQGQKGWFPKSYVKLISG [D21S] | -0.071 ± 0.05
3 | QGEKVEGLQAQALYPWRAKKGNHLNFNKNDVITVLEQQDMWWFGEVQGQKGWFPKSYVKLISG [D21G] | -0.068 ± 0.042
4 | QGEKVEGLQAQALYPWRAKKVNHLNFNKNDVITVLEQQDMWWFGEVQGQKGWFPKSYVKLISG [D21V] | 0.007 ± 0.051
5 | QGEKVEGLQAQALYPWRAKKWNHLNFNKNDVITVLEQQDMWWFGEVQGQKGWFPKSYVKLISG [D21W] | -0.112 ± 0.12
6 | QGEKVEGLQAQALYPWRAKKCNHLNFNKNDVITVLEQQDMWWFGEVQGQKGWFPKSYVKLISG [D21C] | -0.167 ± 0.045
7 | QGEKVEGLQAQALYPWRAKKRNHLNFNKNDVITVLEQQDMWWFGEVQGQKGWFPKSYVKLISG [D21R] | -0.125 ± 0.056
8 | QGEKVEGLQAQALYPWRAKKLNHLNFNKNDVITVLEQQDMWWFGEVQGQKGWFPKSYVKLISG [D21L] | -0.012 ± 0.063
9 | QGEKVEGLQAQALYPWRAKKTNHLNFNKNDVITVLEQQDMWWFGEVQGQKGWFPKSYVKLISG [D21T] | -0.03 ± 0.1
10 | QGEKVEGLQAQALYPWRAKKENHLNFNKNDVITVLEQQDMWWFGEVQGQKGWFPKSYVKLISG [D21E] | -0.096 ± 0.12
11 | QGEKVEGLQAQALYPWRAKKFNHLNFNKNDVITVLEQQDMWWFGEVQGQKGWFPKSYVKLISG [D21F] | -0.131 ± 0.075
12 | QGEKVEGLQAQALYPWRAKKQNHLNFNKNDVITVLEQQDMWWFGEVQGQKGWFPKSYVKLISG [D21Q] | 0.145 ± 0.17
13 | QGEKVEGLQAQALYPWRAKKPNHLNFNKNDVITVLEQQDMWWFGEVQGQKGWFPKSYVKLISG [D21P] | -0.005 ± 0.057
14 | QGEKVEGLQAQALYPWRAKKANHLNFNKNDVITVLEQQDMWWFGEVQGQKGWFPKSYVKLISG [D21A] | 0 ± 0.047
15 | QGEKVEGLQAQALYPWRAKKHNHLNFNKNDVITVLEQQDMWWFGEVQGQKGWFPKSYVKLISG [D21H] | 0.01 ± 0.079
16 | QGEKVEGLQAQALYPWRAKKYNHLNFNKNDVITVLEQQDMWWFGEVQGQKGWFPKSYVKLISG [D21Y] | -0.102 ± 0.07
17 | QGEKVEGLQAQALYPWRAKKMNHLNFNKNDVITVLEQQDMWWFGEVQGQKGWFPKSYVKLISG [D21M] | -0.434 ± 0.2
18 | QGEKVEGLQAQALYPWRAKTDNHLNFNKNDVITVLEQQDMWWFGEVQGQKGWFPKSYVKLISG [K20T] | -0.079 ± 0.051
19 | QGEKVEGLQAQALYPWRAKVDNHLNFNKNDVITVLEQQDMWWFGEVQGQKGWFPKSYVKLISG [K20V] | -0.117 ± 0.043
20 | QGEKVEGLQAQALYPWRAKNDNHLNFNKNDVITVLEQQDMWWFGEVQGQKGWFPKSYVKLISG [K20N] | 0.053 ± 0.054
21 | QGEKVEGLQAQALYPWRAKPDNHLNFNKNDVITVLEQQDMWWFGEVQGQKGWFPKSYVKLISG [K20P] | -0.374 ± 0.063

Row | Variant | abundance fitness
22 | QGEKVEGLQAQALYPWRAKLDNHLNFNKNDVITVLEQQDMWWFGEVQGQKGWFPKSYVKLISG [K20L] | -0.176 ± 0.041
23 | QGEKVEGLQAQALYPWRAKWDNHLNFNKNDVITVLEQQDMWWFGEVQGQKGWFPKSYVKLISG [K20W] | -0.156 ± 0.06
24 | QGEKVEGLQAQALYPWRAKQDNHLNFNKNDVITVLEQQDMWWFGEVQGQKGWFPKSYVKLISG [K20Q] | -0.171 ± 0.066
25 | QGEKVEGLQAQALYPWRAKDDNHLNFNKNDVITVLEQQDMWWFGEVQGQKGWFPKSYVKLISG [K20D] | -0.097 ± 0.056
26 | QGEKVEGLQAQALYPWRAKHDNHLNFNKNDVITVLEQQDMWWFGEVQGQKGWFPKSYVKLISG [K20H] | -0.133 ± 0.06
27 | QGEKVEGLQAQALYPWRAKSDNHLNFNKNDVITVLEQQDMWWFGEVQGQKGWFPKSYVKLISG [K20S] | -0.011 ± 0.039
28 | QGEKVEGLQAQALYPWRAKYDNHLNFNKNDVITVLEQQDMWWFGEVQGQKGWFPKSYVKLISG [K20Y] | -0.15 ± 0.056
29 | QGEKVEGLQAQALYPWRAKMDNHLNFNKNDVITVLEQQDMWWFGEVQGQKGWFPKSYVKLISG [K20M] | -0.06 ± 0.072
30 | QGEKVEGLQAQALYPWRAKIDNHLNFNKNDVITVLEQQDMWWFGEVQGQKGWFPKSYVKLISG [K20I] | -0.092 ± 0.053
31 | QGEKVEGLQAQALYPWRAKFDNHLNFNKNDVITVLEQQDMWWFGEVQGQKGWFPKSYVKLISG [K20F] | -0.101 ± 0.059
32 | QGEKVEGLQAQALYPWRAKRDNHLNFNKNDVITVLEQQDMWWFGEVQGQKGWFPKSYVKLISG [K20R] | -0.078 ± 0.04
33 | QGEKVEGLQAQALYPWRAKKDNHWNFNKNDVITVLEQQDMWWFGEVQGQKGWFPKSYVKLISG [L24W] | -0.778 ± 0.16
34 | QGEKVEGLQAQALYPWRAKKDNHDNFNKNDVITVLEQQDMWWFGEVQGQKGWFPKSYVKLISG [L24D] | -1.26 ± 0.4
35 | QGEKVEGLQAQALYPWRAKKDNHKNFNKNDVITVLEQQDMWWFGEVQGQKGWFPKSYVKLISG [L24K] | -1.14 ± 0.33
36 | QGEKVEGLQAQALYPWRAKKDNHINFNKNDVITVLEQQDMWWFGEVQGQKGWFPKSYVKLISG [L24I] | -0.359 ± 0.27
37 | QGEKVEGLQAQALYPWRAKKDNHENFNKNDVITVLEQQDMWWFGEVQGQKGWFPKSYVKLISG [L24E] | -0.591 ± 0.11
38 | QGEKVEGLQAQALYPWRAKKDNHANFNKNDVITVLEQQDMWWFGEVQGQKGWFPKSYVKLISG [L24A] | -0.436 ± 0.061
39 | QGEKVEGLQAQALYPWRAKKDNHCNFNKNDVITVLEQQDMWWFGEVQGQKGWFPKSYVKLISG [L24C] | -0.199 ± 0.14
40 | QGEKVEGLQAQALYPWRAKKDNHNNFNKNDVITVLEQQDMWWFGEVQGQKGWFPKSYVKLISG [L24N] | -0.563 ± 0.19
41 | QGEKVEGLQAQALYPWRAKKDNHMNFNKNDVITVLEQQDMWWFGEVQGQKGWFPKSYVKLISG [L24M] | -0.611 ± 0.17
42 | QGEKVEGLQAQALYPWRAKKDNHSNFNKNDVITVLEQQDMWWFGEVQGQKGWFPKSYVKLISG [L24S] | -0.867 ± 0.14
